Laboratory results as given in the DeepSol protein solubility set.

assay: soluble on expression in E. coli; label from the status in PepcDB or PDB records

| Sequence | soluble on expression in E. coli |
| --- | --- |
| MREVEPLAERLRPRSLDEVLGQPHLTGPQGLLRRMLEAGRLSSMVLFGPPGTGKTTLARLLAEGVGRPFLRLSAVEAGLKEVRQAVEEARAKGGLVLFLDEVHRFNKAQQDALLPHLESGLLTLIGATAENPAFALVPALRSRLRFFPLRPLEEADLLALLRRALEDPRGLPGTPYEEEALRVLAQAAGGDARFALNTLELAASFGRVDLKSVREALGAERFGMDREGDRFYDLVSALHKSLRGSHVDAALYYLARLLQGGADPRYLARRLIRVAVEDVGLADPLALRLAVAAKEAYEALGSPEGELALVEAAVYLALAPKSNSLYAAWKKAQEAAKAHPEAEVPLNLRNAPTGLARALGHGEGYAYYHEDKEGSFAQRYLPEGLEGLTLFEATGEGWEERVRERLKALRERFQTARRRRG | soluble |
| MRFERFVGIDPSLRTGFVALSPFGEVIEAKEIEKEGDDPARMSKLIQVVVDSVHDTDFVAIEGFGYASQRGFLLGGIGWGMRMELYRRGIPYIDVAPSLLKKFAGAKGNANKEKVVLEVYKRWGFESDSNNVIDAFVLAQIARAAKTETKLIQAQKEVLNKLFK | not soluble |
| MRFSREALLELEASRLAPYAQKARDTRGRAHPEPESLYRTPYQKDRDRILHTTAFRRLEYKTQVLPGWAGDYYRTRLTHTLEVAQVSRSIARALGLNEDLTEAIALSHDLGHPPFGHTGEHVLNALMQDHGGFEHNAQALRILTHLEVRYPGFRGLNLTYEVLEGIATHEAAYSPGFKPLYEGQGTLEAQVVDLSDAIAYAAHDLDDGLRAGLLHPEELKEVELLQALALEEGLDLLRLPELDRRVLVRQLLGYFITAAIEATHRRVEEAGVQSAEAVRRHPSRLAALGEEAEKALKALKAFLMERFYRHPEVLRERRKAEAVLEGLFAAYTRYPELLPREVQAKIPEEGLERAVCDYIAGMTDRFALEAYRRLSP | soluble |
| MRGLAVLVLLVFAVQVAAAEDFRPVVFVHGLAGSAGQFESQGMRFAANGYPAEYVKTFEYDTISWALVVETDMLFSGLGSEFGLNISQIIDPETLDKILSKSRERLIDETFSRLDRVIDEALAESGADKVDLVGHSMGTFFLVRYVNSSPERAAKVAHLILLDGVWGVDAPEGIPTLAVFGNPKALPALGLPEEKVVYNATNVYFNNMTHVQLCTSPETFAVMFEFINGYKPATTDIVPQDGDYVKVKGKFLAFATNGDVSGWLSIYPIDENGKRLTRLPVKFMRVKGDFEVRLRKGQLYEFQFRKDFSPIIYHYYRAPFVRDDLWARFLVSKPPLDVELLILPERLSPAAKETSGLLLIRYKEMIGEYDEEIGGVDEVYVNGVNVCTERICPIERAVNGLWVFDRGADGKSDLDREVVRYSIMPFMSAADLVVPAEGTISIAVKSRTGGEESFTIPAWSADRHSIIVQFSDYIVDKLAAALEH | soluble |
| MRGNKGGERSRTFTVQARIVGRWQHPCSPRPEGRVHPQLPPHAAATRLACVRLYKHCGICGTPTHAVSHRNDTHDGDSAPTRCPRAEMPLSKKSSSLRQAIPCSVLFAADPLQVPSNACVGNRLSTVRRQHQFSASRHTKHAPSVAEDGNGIPRPPPVSVGAGVVDNANEPFAEYARLSTSLASRAHVEPFSSAPMSSFASCPYVAASSHGSTTMSKALRRLPTTVTALPGMAPPPPTISAAVPRNGHRTAGRTSAPLRVHLVHRTRSPPGLAHSPPAYSSTVTTSMPHEIPPTSALVLPYCTDAQLRNLFATLFVRTGDATWSVHQHILPFLTVRQHCNLSAAPSQVTAFFGLTSHSDEDVHEKGATGAAGHQGEQAFFGGPWATKEMNRVASQLCYSFVYVGILGCGEEMCWDTLPMPLGGIPALARRSPVRNAYNTGSTSASQSPVTRSSSSSAHPATPEKQCLCPTPHRSLRNSPCVSSSALGVVALMEGLKQHQPSRMVEDGGADDDEGGPKSTVLYHTDQLESSTLDVVTTSTLTSVEFRGVVEAPPLVQEVAFVRGATRSYKLSWETARGSLHT | soluble |
| MRGSHHHHHHDDYDGIPNLTAVQISPNADPALGLEYPVRPPVPGAGGLNASAKGIHSIAIGATAEAAKGAAVAVGAGSIATGVNSVAIGPLSKALGDSAVTYGAASTAQKDGVAIGARASTSDTGVAVGFNSKADAKNSVAIGHSSHVAANHGYSIAIGDRSKTDRENSVSIGHESLNRQLTHLAAGTKDTDAVNVAQLKKEIEKTQENTNKRSAELLANANAYAD | soluble |
| MRGSHHHHHHGMASMRILLSNDDGVHAPGIQTLAKALREFADVQVVAPDRNRSGASNSLTLESSLRTFTFDNGDIAVQMGTPTDCVYLGVNALMRPRPDIVVSGINAGPNLGDDVIYSGTVAAAMEGRHLGFPALAVSLNGYQHYDTAAAVTCALLRGLSREPLRTGRILNVNVPDLPLAQVKGIRVTRCGSRHPADKVIPQEDPRGNTLYWIGPPGDKYDAGPDTDFAAVDEGYVSVTPLHVDLTAHSAHDVVSDWLDSVGVGTQW | soluble |
| MRGSHHHHHHGSACELVREMEGVDYLADERKKAGFDVDEMKIVWAGSRHDFELTDRISKLVASDPGFSKEGRTMLPRKELFKNTLRKAAYAWKRIIELRLSQEEATMLRRYVDEPAFTDLHWGMFIPAIKGQGTDKQQEKWLPLAYKMQIIGCYAQTELGHGSNVQGLETTATFDPQTDEFVIHSPTLTSSKWWPGGLGKVSTHAVVYARLITDGKDYGVNGFIVQLRSLEDHKPLPGVTVGDIGMKFGNGAYNSMDNGVLSFDHVRIPRDQMLMRVSQVTKEGKYVQSDIPRQLLYGTMVYVRQSIVADASLAMSRAVCIATRYSAVRRQFGSQNGGQETQVIDYKTQQNRLFPLLASAYAFRFVGEWLKWLYTDVTQRLAANDFSTLPEAHACTAGLKSLTTSATADGIEECRKLCGGHGYLCSSGLPELFAVYVPACTYEGDNVVLQLQVARFLMKTISQLGTGKKPVGTVSYMGRIEHLMQCRSDVKQAEDWLKPSAVLEAFEARSARMSVACAKNLSKFENQEEGFAELAADLVEAAVAHCQLIVVSKYIEKLQQNIPGKGVKQQLEVLCGIYSLFILHKHQGDFLGTGYITSKQGSLANDQLRALYSQLRPNAVSLVDAFNYTDHYLGSILGRYDGNVYPKLYEAAWKDPLNKSDIADGFHEYIRPLLKQQLRTAKL | soluble |
| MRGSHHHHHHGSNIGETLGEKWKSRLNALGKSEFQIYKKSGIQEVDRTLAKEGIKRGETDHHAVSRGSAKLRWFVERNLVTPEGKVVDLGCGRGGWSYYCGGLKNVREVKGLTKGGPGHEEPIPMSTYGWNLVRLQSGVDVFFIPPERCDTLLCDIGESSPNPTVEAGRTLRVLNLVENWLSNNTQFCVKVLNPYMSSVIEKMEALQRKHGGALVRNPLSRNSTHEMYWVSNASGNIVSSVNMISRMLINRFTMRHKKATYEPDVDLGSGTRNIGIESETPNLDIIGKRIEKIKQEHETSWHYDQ | soluble |
| MRGSHHHHHHGSSEPLILDAPNADACIIWLHGLGADRTDFKPVAEALQMVLPSTRFILPQAPSQAVTVNGGWVMPSWYDILAFSPARAIDEDQLNASADQVIALIDEQRAKGIAAERIILAGFSQGGAVVLHTAFRRYAQPLGGVLALSTYAPTFDDLALDERHKRIPVLHLHGSQDDVVDPALGRAAHDALQAQGVEVGWHDYPMGHEVSLEEIHDIGAWLRKRL | soluble |
| MRGSHHHHHHTDPALRADLSLLKALSEADAIASSEQEVRQILLEEADRLQKEVRFDGLGSVLIRLNESTGPKVMICAHMDEVGFMVRSISREGAIDVLPVGNVRMAARQLQPVRITTREECKIPGLLDGDRQGNDVSAMRVDIGARSYDEVMQAGIRPGDRVTFDTTFQVLPHQRVMGKAFDDRLGCYLLVTLLRELHDAELPAEVWLVASSSEEVGLRGGQTATRAVSPDVAIVLDTACWAKNFDYGAANHRQIGNGPMLVLSDKSLIAPPKLTAWVETVAAEIGVPLQADMFSNGGTDGGAVHLTGTGVPTVVMGPATRHGHCAASIADCRDILQMQQLLSALIQRLTRETVVQLTDFRGLCGR | soluble |
| MRGSHHHHHHTDPALRALGLKQVHHIAIIATDYAVSKAFYCDILGFTLQSEVYREARDSWKGDLALNGQYVIELFSFPFPPERPSRPEACGLRHLAFSVDDIDAAVAHLESHNVKCETIRVDPYTQKRFTFFNDPDGLPLELYEQGLCGR | soluble |
